Assay results: the supplement of paper PMC10724198
± gives the standard deviation of the averaged measurements.

test system: Saccharomyces cerevisiae; assay: protein stability index of tFT-peptide fusion (C-terminal peptide) (PSI (0-1 scale)); higher = more stable (slower turnover); conditions: genetic background: wild type; temperature: 30 C
Protocol: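 Multiplexed protein stability (MPS) profiling in S. cerevisiae. Random 12-aa peptides (tFT-X12 library) are fused to the C-terminus of a sfGFP-mCherry tandem fluorescent timer, after mCherry and a GGGS linker. Cells are FACS-sorted into 8 mCherry/sfGFP bins and deep-sequenced. The protein stability index (PSI) is the read-weighted bin average, scaled from 0 (unstable) to 1 (stable). Only peptides with >10 reads are reported; cells were grown at 30 °C in SC-His with glucose.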
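Note: PSI is a weighted mean of sequencing reads over stability bins, variants kept only with over 10 reads, mCherry proximal and sfGFP distal, peptide attached via GGGS linker.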

Sequence	protein stability index
ARRAAPRRPPSD	0.689 ± 0.047
ARRGAGGGHKGD	0.673 ± 0.038
ARRPAESHGTTI	0.716 ± 0.012
ARRSAGGAAVPG	0.624 ± 0.0098
ARSHSPPPPRPP	0.6723 ± 0.0029
ARSRPSILSGPE	0.689 ± 0.062
ARVAPPWRSTRA	0.683 ± 0.049
ASATCQKGSIPR	0.677 ± 0.036
ASCPLHFTDIRP	0.679 ± 0.018
ASEGRWVSVMGG	0.686 ± 0.05
ASFFTARMYIIF	0.676 ± 0.031
ASFPPPPAAPPP	0.673 ± 0.093
ASGGLVGAWVCV	0.675 ± 0.0091
ASGSSVSFQVSF	0.65 ± 0.069
ASIFPTLKLTYL	0.713 ± 0.011
ASLHAPPLPPLC	0.689 ± 0.02
ASLLGSSPPPFI	0.696 ± 0.072
ASLTNERCGASR	0.679 ± 0.019
ASLVSPSFLGLV	0.677 ± 0.084
ASNRVLRILLPR	0.683 ± 0.05
ASQPNRIPSPPR	0.71 ± 0.01
ASRFSLPLLSLL	0.71 ± 0.14
ASRHGALIVLST	0.6701 ± 0.0053
ASRPPAPVPLPL	0.686 ± 0.015
ASRRSGSYTGYR	0.672 ± 0.035

Sequence	protein stability index
ASSFVGLRWWAG	0.722 ± 0.012
ASSPAPPSPTPP	0.7 ± 0.05
ASSPPPRISAWL	0.7463 ± 0.0032
ASSRPQRKSGKR	0.77 ± 0.0086
ASSRQCSVEART	0.695 ± 0.0082
ASTFADASSALV	0.71 ± 0.014
ASTLPTQPWPKG	0.729 ± 0.11
ASVCASCYTGGF	0.665 ± 0.03
ATALETWGGAQG	0.691 ± 0.015
ATGLPSPALLHT	0.687 ± 0.043
ATLGRCYSSNGL	0.672 ± 0.031
ATPPPVRPSPIL	0.677 ± 0.035
ATPTSPSRPFLL	0.707 ± 0.086
ATTVAIVFCRPA	0.6165 ± 0.0039
AVAERGRPPLKE	0.6893 ± 0.0059
AVAHLSCTSRFG	0.6944 ± 0.0037
AVCCKYFGESLF	0.864 ± 0.0098
AVCWDVSRCLGL	0.7 ± 0.019
AVCWWGSVGGVG	0.6966 ± 0.0069
AVGGWRAAGGGG	0.7114 ± 0.0042
AVHASTLCSSIG	0.6659 ± 0.0043
AVLGDGCGVVGA	0.691 ± 0.072
AVNLWSRFFDLP	0.686 ± 0.052
AVRGYGCGGGTG	0.6971 ± 0.0012
AVSHGLFALPFL	0.703 ± 0.012

Sequence	protein stability index
AVTRLQPVMRAV	0.6804 ± 0.0054
AVVGCGGGWWWA	0.715 ± 0.13
AVVVWGGGWWWA	0.78 ± 0.15
AVWGWAFASVGG	0.735 ± 0.04
AWESVGVWWGDS	0.76 ± 0.043
AWGELGSGVFGL	0.681 ± 0.032
AWGRWGGGSRVE	0.636 ± 0.02
AWGYFTDTRERY	0.687 ± 0.036
AWQGRVEGGDGA	0.665 ± 0.024
AYCRRPALPWRG	0.714 ± 0.028
AYEGVYAVVANV	0.616 ± 0.014
AYICLSGLGRCI	0.672 ± 0.03
AYPWWLILSDAI	0.759 ± 0.016
AYWWSLGRALGC	0.745 ± 0.065
CALWHLLPVNLH	0.645 ± 0.059
CAPPSSPCLCSI	0.701 ± 0.064
CASLATAPPTSQ	0.728 ± 0.026
CAWLCVRFAGVG	0.668 ± 0.062
CCGHGVFSFFSL	0.749 ± 0.023
CCLASVSADKVV	0.703 ± 0.025
CCLGCFLKHGIV	0.652 ± 0.035
CCSIVRSGAGDK	0.748 ± 0.012
CCSSCFVLSKAA	0.6463 ± 0.0031
CDCDESYFNPLG	0.666 ± 0.037
CDLISNFFLIGV	0.633 ± 0.03

Sequence	protein stability index
CDSVATFCLRLF	0.6234 ± 0.0031
CEHGGWYVGFCS	0.7 ± 0.008
CERIGIRHLIKW	0.657 ± 0.036
CFCSWFWDLVLC	0.628 ± 0.0076
CFDALLPEELSS	0.696 ± 0.044
CFLPLFFFRFVE	0.609 ± 0.027
CFVDHCPIAHIY	0.608 ± 0.022
CGCCTSSPFVSQ	0.687 ± 0.061
CGGDGRTPTTHT	0.665 ± 0.019
CGGGCVVGAGWG	0.727 ± 0.044
CGLMIFSRSYRF	0.704 ± 0.033
CGMIQDKCEGEI	0.738 ± 0.049
CGRITADKRILL	0.65 ± 0.098
CGRRGYIVRTFL	0.658 ± 0.071
CGSWVAVESLEL	0.679 ± 0.042
CGVGEGGLLGWL	0.745 ± 0.072
CGVGWGMVEGWR	0.691 ± 0.016
CGWFSVGLMVGG	0.485 ± 0.057
CHSLEDRPDDPC	0.758 ± 0.1
CIGVGTVRGSHG	0.673 ± 0.067
CIKQTNNQNKSN	0.697 ± 0.045
CILYTGYDLGNV	0.7 ± 0.021
CIPVTGLHFRVI	0.6136 ± 0.0035
